Measurements taken from article PMC7949122 (The Journal of Biological Chemistry, 2021).
Entries after “also recorded” stand apart in the source; their conditions may differ. Non-standard residues stand in square brackets, D forms with d. No end group written: not given here. Hyp = O=C(O)[C@@H]1C[C@@H](O)CN1; 2Thi = N[C@@H](Cc1cccs1)C(=O)O; NChg = not defined here

T1: human B2R on transfected HEK293A cells (human, UniProt P30411 1-391)
T1 chain: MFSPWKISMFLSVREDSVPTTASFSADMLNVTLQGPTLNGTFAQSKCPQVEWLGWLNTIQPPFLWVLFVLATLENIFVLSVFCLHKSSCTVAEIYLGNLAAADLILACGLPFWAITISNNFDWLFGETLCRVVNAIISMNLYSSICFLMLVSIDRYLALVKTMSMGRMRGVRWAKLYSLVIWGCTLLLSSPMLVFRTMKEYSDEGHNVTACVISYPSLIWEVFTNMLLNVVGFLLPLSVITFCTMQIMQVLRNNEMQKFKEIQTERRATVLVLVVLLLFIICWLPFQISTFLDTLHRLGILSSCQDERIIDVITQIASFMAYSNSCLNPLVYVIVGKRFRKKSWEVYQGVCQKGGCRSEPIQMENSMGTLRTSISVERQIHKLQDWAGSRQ


Legend:
[1] = system: endogenous B1R in HeLa cells (ERK1/2 phosphorylation); test: ERK1/2 phosphorylation (western blot) after B1R stimulation, AltB2RFlag versus Mock stable HeLa cells; type: cell-based, human; settings: 1 μM NG29, n = 3
B1R = system: B1R; set-up: method as in PMID 15734727; settings: cited from earlier work
[2] = target: T1, human B2R on transfected HEK293A cells; test: B2R(Ø); displacement of [3H]-BK
[3] = target: T1, human B2R on transfected HEK293A cells; test: B2R; displacement of [3H]-BK

IC50 [2] [nM]	IC50 [3] [nM]	Molecule	phosphorylated ERK1/2 after B1R stimulation, AltB2RFlag versus mock HeLa cells [1]	kinin receptor selectivity (B1R)
–	–	SarLys[Dphe^8]desArg^9-BK [NG29]	not significant; also recorded: did not observe any difference in the increased levels of phosphorylated ERK1/2 between mock and AltB2R^Flag cells	–
–	–	desArg^9-BK: carboxy-terminally truncated peptide metabolite (RPPGFSPF; Bradykinin; UniProt P01042 381-388, looked up, fragment)	–	selectively bind to the other type of kinin receptor, the inducible B1R
–	–	desArg^10-KD: carboxy-terminally truncated peptide metabolite (KRPPGFSPF; Lysyl-bradykinin; UniProt P01042 380-388, looked up, fragment)	–	selectively bind to the other type of kinin receptor, the inducible B1R
4.38	6.21	RP[Hyp]G[2Thi]S[NChg][2Thi]R (reading uncertain; also: printed as [Hyp^3,Thi^5,^NChg^7,Thi^8]-BK) [NG291 ([Hyp^3,Thi^5,^NChg^7,Thi^8]-BK)]	–	–
18	17.7	RP[Hyp]G[2Thi]SP[Tyr(4-Me)]R (also: ΨCH2NH reduced bond between residues 8 and 9) [RMP-7 ([Hyp^3,Thi^5,(4-Me)Tyr^8(ΨCH2NH)Arg^9]-BK)]	–	–
